Target: interleukin 1 receptor 1 (Il1r1), murine (mouse) (UniProt P13504)
Test: cell-based or functional assay

Chain of UniProt P13504 (P13504 20-576): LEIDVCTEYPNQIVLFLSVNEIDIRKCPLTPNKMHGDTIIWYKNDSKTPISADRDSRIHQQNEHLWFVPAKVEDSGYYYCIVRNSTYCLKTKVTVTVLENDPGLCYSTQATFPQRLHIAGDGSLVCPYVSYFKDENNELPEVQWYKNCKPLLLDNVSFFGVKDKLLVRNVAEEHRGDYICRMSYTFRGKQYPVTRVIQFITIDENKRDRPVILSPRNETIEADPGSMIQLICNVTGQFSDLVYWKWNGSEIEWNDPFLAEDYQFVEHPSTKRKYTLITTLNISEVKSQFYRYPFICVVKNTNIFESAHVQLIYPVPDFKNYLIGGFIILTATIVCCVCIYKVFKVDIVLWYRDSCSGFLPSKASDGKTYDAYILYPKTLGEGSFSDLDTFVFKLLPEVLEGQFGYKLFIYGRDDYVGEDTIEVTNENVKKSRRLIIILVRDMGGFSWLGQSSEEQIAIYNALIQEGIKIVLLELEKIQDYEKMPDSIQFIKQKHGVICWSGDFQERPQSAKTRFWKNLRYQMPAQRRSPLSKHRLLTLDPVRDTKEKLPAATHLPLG

- NF-κB transcriptional activity (luciferase reporter), fold induction after IL-1α stimulation of Il1r1+/- cells: 4.8 fold
- NF-κB transcriptional activity (luciferase reporter), fold induction after IL-1α stimulation of wild-type (Il1r1+/+) cells: 6.3 fold
Substance: IL-1α (ligand)

Reference: patent US20180201951A1
